The text below walks through data of the domain aggregation screens of Martell et al. (2025).

This data set is described as follows: soluble fraction after stress (log2 fold change); higher = more stays soluble; pooled small domains, quantitative proteomics. Particulars: stress: pH 4. The essentials: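 How much of each domain stays soluble after acid stress, expressed as a fold change, is used to gauge aggregation propensity. Pooled custom libraries of small domains underwent pH 4 stress before high-throughput quantitative proteomics. A higher log2 value means more of the domain stayed soluble.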
“HMVSKTEAMAVFIADKLQEGMVPANEILELYKGMQLSDRTIRNAKKQLGIVSIRKDGQWYWSL”: the “soluble fraction (log2)” value is -0.997. On to “HMVSLPSPLAGKVVSLTVQAGQEVKEGDEIMVLEAMKMNTQVHAPSSGRILALRVQPGDQVEEGQTLVTMG”, for which the “soluble fraction (log2)” value was determined as 0.0584. With “HMVSLSNQVFEKIEYDILSGKYKIGEIISEKRLSSELGVSRTPIREALGRLSEEGLVGDSPSGTVVLGI”, the “soluble fraction (log2)” value is -0.287. The same measure for “HMVSRVTTPGVVGKTWQETKQILKQADLTVGSLTRDGKDVTPADGDLVTAQNPSAGQAIVRGSSVDLTFDK”: 0.0198; for “HMVSSYTMAIQINGKLRATHDFSVDTSQEDIKKIIINLPAIQKYINGVEIKKFIIVPQKIVNIV”: -0.0406.

As for “HMVSTEDEISDKLLLDFALEKLSENEKQIVKLRYYNSLTQSKTAEILNMTQVQVSRSEKKILAKLRGII”, the “soluble fraction (log2)” value was determined as 0.0807. Consider “HMVSTGIMVVDGRGSVLQHNEAALRQLGVEVLTFESQVKEKLASEDFSVRETTAMLNGKKVRIIAFSDIR”, for which the “soluble fraction (log2)” value is -1.66. The same measure for “HMVSVEELLSSLDPNEATVLKLLAERSSGVDELMERSGLDFSALSEAITNLELFGYIAREMDGVYSFS”: -1.78; for “HMVSVPDIGEKLPDFTGTPKRLLTPLLNKNDVNIIIKGDGWVVSQKPPAGTPVTKGMTIEFTL”: -0.0317. For “HMVTDSGEIEKLVDEVIDNNPDQVQQFREGKQQVLSYLVGQAMKLSRGKANPNQVNQFLRDKL”, the “soluble fraction (log2)” value stood at 0.152. The same measure for “HMVTDTGEIEAIIDRVISENPDSVSDFKNGKERALKFLMGQAMKESKGKANPQIVNELLLKKL”: 0.0343; for “HMVTDVDELEKLIQKVLDSNSSQVDEYRQGKEKVFGFFVGAVMKLTKGQADPDVVNQLLKEKLSGRK”: -0.0516. As for “HMVTDVDYSTFLSQVEEGKVESVTIEDGEILFKGKDENGEARWYITGEMNDPNLVERLKDKVPSFNAPA”, the “soluble fraction (log2)” value was -0.128. “HMVTIYQRIMLVLEDKQVSVNALSKLVDMSQTTLNTQLKGERTLSANVVAKVLVAYPDVSAEWLMRGVGTM”: the “soluble fraction (log2)” value was -0.426. The same measure for “HMVTLYDGFLSELRKRIPRGAELTNTLVDMLYIEREAVYRRLRGEVPFTFIEVMTVSKELGISLDNLAQA”: -0.802; for “HMVTTADIILEFYSRNPNATLTQAAQHVARATGTTYSRQAISAQLKRLEVAGLVERNGHVTV”: -0.47. Regarding “HMVTTLLIINVAGKVKNPGVYQLPPGSRVVDALEAAGQQLKGVDISDINLARVLVDGEQILIGSN”, the “soluble fraction (log2)” value is -1.35. The same measure for “HMVTVQEGETLSAIAARSGVSVKDLVRANEIRNPDSIQEGQVLFVP”: 0.165; for “HMVVADFQNYTVKPKENLYSLTKTSGLSQEELVALNPELKNGVQEGMVIKLPAAVKLMAQPE”: 0.22.

For the sequence “HMVVLPGEVLRINVIQEGKEHGQGVGYMDDGTMVVIENGREFIGEYMEVNVTKVLQTAAGRMIFGRVD”, the “soluble fraction (log2)” value was -0.917. The same measure for “HMVVLPPTEDAPEWAQVFDRLGRPESADGYKLPVPEGADPAFAKLASAKMHELGLSAKQGAALAAWWNEQA”: -0.332; for “HMVVMEIGANGSEVVKLQKRLNQLGYYTEHASGVYDVKTASAVNEFQRQNELNATGKADYTTLDMIYNQ”: -0.204; for “HMVVRRLPFGFSKRFGVLVVPGTSNPVELLYREDASMQSLLEARRVVAQPVAFKKTDVESFNAQLARAHEN”: -0.122.

Take “HMVVSDSAEIDKIVQDVIAANPKAIEDFKSGKTNVTGWLMGQVMKLSHGKANPKQATEILNKYLSK”: the “soluble fraction (log2)” value was determined as 0.18.

On to “HMVVTRVKAIDVVNIRKSDSETADKLGKAAVGDEFDLLEKKGNGWSKISYEGGEAYIKSEFLEPSE”, for which the “soluble fraction (log2)” value is 0.034. The same measure for “HMVVVMEKNASSAEIEQVQERLRQAGFKIHLSQGVERTIIGAIGDRSQVDLGFLEALPGVEKVVPIMK”: 0.248; for “HMVVYFGGPVMLERGIVLHTPDISTKGTINVSDDFALTAHKEILDNINKDTSSLQFKLAIGH”: -0.337; for “HMVWINIRDLSDLFSKSGKSENSKNILDLQTLKIEKLLGGGQINTPYTIKVKQATPSAIEKVKQAGGEVIL”: -0.00604. As to “HMVWPETEAIVTEDFIGKKRSEVQQEGVIFEFFGEGDMVIDQLPRGGVTLNESGRVWIYLGEDTF”, the “soluble fraction (log2)” value is -1.4. Next, “HMVYFAKNIRHLRRLRGMSQELLAAELDITRARLGAYEESRSEPPLHLLIKISEFFKLPVDIIVKNDLTKS”: -0.961. Next, “HMVYFDDEELDRFAGRAADSYTSDETDEFRDVMLTLLPADVMPWTQSIEMRGILLPEQLRDELLML”: -1.26; “HMVYVPTKAEVSQQFQDASKARFDERYAIVELADGRRTMAPLAFLTKADHAWLKQLASTSPLPKGK”: 0.0133; “HMWAQSVSLHGLLGRQALLIVDGKPPRAVAPGQTHLGVTVLSTDEDRAVVALAGGQRLTLRVGESPVSVG”: 0.264. The same measure for “HMWMEKEELLWNDIIRGGVERGELREDTDIQEAAALFRQVFIGLAYQMSFSDGLDVGILRKRFHHIYGLLT”: -2.16.

“HMWNKGETKIPTQAQNELIKRRQAGATWTSLSEWLKATYGIDIHRTNIQRWYDKEVYLDQEN”: the “soluble fraction (log2)” value was -0.556. For the sequence “HMWNPVLVVRGDFPKDLATTLLKMIFAQKEALNPHILFQNLLRTDNITFRESYPYHSASKTMFRF”, the “soluble fraction (log2)” value is -0.421. On to “HMWPQIAGFADRFGLSDTERRIVTLMSHGRSRKIIASTLGYSQNTIRNYTRNIYAKAGVHSKQELLDLLDP”, for which the “soluble fraction (log2)” value is -0.117. For the sequence “HMWPTPRTWSALMNELNLYKENHGYANIVDIPSEKIRRMADGIIGEDMAVRYVAFLQSHASS”, the “soluble fraction (log2)” value was -0.614. Next, “HMWQKGEPAITGLKRISKPGLRIYSKNDELPIVYGNRGIAVISTNKGVMTGIEAKRSGVGGEVLFYV”: 0.104. The same measure for “HMWSAREQVVNSLREAILTSELKAGERLVLSDLSARLGVSVTPIREALQSLEREGLVQLMPHQEAVVV”: -0.409; for “HMWVETITTKAGITKYKFQERYTDTYSGKTKRVSVTYTSNSRQAYKLAQAELQKKIDLATNTD”: 0.112; for “HMYAHLGKNLEVVINKALAQEDPEKKAGFAHHIAYYMKLAYSNWHKELVHDDAIRSELDTITGGELEFSN”: -0.0696. As to “HMYAHTPEMEAMNELGLEPPVTLDEIKKTYKTLVKKYHPDHNKEDPEAEEKLKKVNMAYTILKVAYTEFEK”, the “soluble fraction (log2)” value is 0.0101. Consider “HMYALGIPVSQYRRTTQVLGHESSYPIAYEDEKQDDDFYLFKFPNIDEYDFKKIVILLKQNGITT”, for which the “soluble fraction (log2)” value was -0.338.

For the sequence “HMYDNTVTKYVNSLSVYVRKGPSTSDEIVTSLIKDTDVTVVGENGEWYKIKYKEFEGYIYKNLLSDNKT”, the “soluble fraction (log2)” value is -0.125. As to “HMYDRIKLLKLREKRGLTQYELAEKAGISVVTLNKIETSDMAKPFASTLKKIALALGVGIEELS”, the “soluble fraction (log2)” value is 0.22. Take “HMYEDGGAFLKAEREKYGLTLTDIYEHTHIPVRKLKAYEMHEEEMPDRTRALLELYFDQVAYEYES”: the “soluble fraction (log2)” value is -0.339.

In the case of “HMYEDIDSAYRILEINSTVSNQEIKNAYRRMAKKYHPDKVAHLGVEHQKGAEEKFKKVQEAYILIKKRRG”, the “soluble fraction (log2)” value is -0.146. Consider “HMYEENFSKIKNDISTIFKRHKISFTNNFISHLSSVFNTDSLTNKMELEKLDSFLINNKKVTENELLKFII”, for which the “soluble fraction (log2)” value was 0.0436. With “HMYEINEIIRERRLKKGLTQAQVAKYLGVSAPAVNKWEKGTTYPDLVLLPALARLLDTDLTTLLSF”, the “soluble fraction (log2)” value was -1.02. Next, “HMYEVVPNMRGLTYNQATAALAAAGLKVELSDSIYDEHTQPGTVLDQSPRPNTKVKPNRVVYLTVNAF”: -0.0904. On to “HMYFDDEELDTYKGRASNAYSPDETAQFEEVMTTMRPDEVAAWLRSLQLRGINLPDELKDEAIMLVE”, for which the “soluble fraction (log2)” value is -1.22. The same measure for “HMYFGNSLFQARKRSGLSQEGVAEKLGVSRQTVSKWETGETVPDIYQSKKMARLYGVSLDEL”: 0.217; for “HMYFNTADLKADSIHYGSTEQSVIKILGEPEYRETFVDNNVSYELFSYKGNLLLSFVENSLVSL”: -0.0269. “HMYGTERILAQLANYGIPNKLAFQIQDFYKEETLQIVEQQPYRLVEDIQGMGFKIADQLAEELGI”: the “soluble fraction (log2)” value was -1.35. Next, “HMYIDLHEIWKSLTDEEQTVVKLLETEPAHVDTLIENSQIPASRILATLTLLEVRGIVKRLPGRMFSLAD”: -0.571; “HMYIENIGDYLKSHDIKPSYQRIKVFEYLMQHKNHPTVDMIYKSLVDEIPTLSKTTVYNTLNLFIEKQI”: 0.0963. As to “HMYITGAVIRKLREKNNITQLQLAERLRVSDKTISKWETGKGYPDITLLEPIAKTFSVSVTELISGDI”, the “soluble fraction (log2)” value was -0.84. “HMYKNLRAFRESLGMTQKDFAASLSIGLSTYNGYEVGAREPKSDFWIAVARKYGVTIDYLMGFSDDPHK”: the “soluble fraction (log2)” value is 0.195. Next, “HMYKSSRASKSEVNKFLKFIIQSLDKRGFLQPGHKRQSMIRNIENIFYRTNLSDQEIRILLGIFSTLNK”: -0.405; “HMYLELVTKEGGSFDEPDYWGRRKLAYEIAGKTEGNYVVVKYTAEPATSDELDRVLNLNESVIRTKILRK”: -0.461. The same measure for “HMYLHSEFSPVTGQELHMKYDDSSTEEDPVMLVEGKDIQGNDFVKKIHLNDVDPENATPAEMTALRVHL”: -0.507; for “HMYLLPVTSTELKGNYPNPFNPETTISFDLKDAERVNLSIYNLKGQLVRTLVNSDLPIGRHRLIWDGNDS”: -0.609; for “HMYLPGERMRIKITALGSNPKQGVGYLPDGMMVVVDEAATLVGRFVEIEFVKFLQTNSGRMMFAKVAT”: -0.02.

Turning to “HMYMKGKVKWFDSKKGYGFITSENGKEIFVHFSGIAAKGFKSLNEGQTVEFEVANGAKGEQAVNVTV”, the “soluble fraction (log2)” value is 0.178.

Consider “HMYMKTITEQFGERLKKIRTQKSLSQEQLSYLADIDRSYISDVERGARNISLENIYKLASALNIPPYLVLL”, for which the “soluble fraction (log2)” value is -0.344.

Consider “HMYMLYQQLADSLRDKIYEGTYTFGDKIPSERTLAATFGISHLTVRKALAILEEEGLLDRRQGNGTFVRV”, for which the “soluble fraction (log2)” value was -0.693. Next, “HMYNIDSFMTKNYPTMERFTLSDVQKKYKTTFGLFVKQDELASMIEKTGRFNITSSKNVKYVNR”: 0.313. The same measure for “HMYNPAYDAEIKVILELARHGYWEEARERADELLKAAPDDTGVKRIQTWVRQQEQRMREQAIEDSIRA”: -0.206.
